According to the NTF2 design screens of Basanta et al. (2020):

Assay: protease stability score; higher = more stable; yeast display proteolysis, trypsin and chymotrypsin;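 note: relative to predicted unfolded state with 0 unfolded-like and 1 meaning tenfold more protease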

Compared with “SDEQEMLTRIIEIFFHAVLTGDEETLIEMLDPHARLDVNGVTVIGMEKIWHHVEEMRFKDTKIHDIDVQGNKMKVDGRLDGQINGREHRFRTIIIIEKINGKWLVKRIIIL”, “DEHDKHVHEMAERIMRSWHTGDEDTFHKMADPNVRVEIFVNGKNIIRHGREVWKHELERYDHVELRIKSMDAQGDFVHIDGELTINIGDKKHSTTLRIELEFINGRLKRISVHIH” is lower in protease stability score: 2.44 for the first, 1.05 for the second.

Compared with “SHEEEDEHRLVIEWLEAVLTGDEDRLTELFDPNMRFVFENHQVHGRERVSKLLVRHMLEWRTRVKIEDMEYFNGRLHIDMELHVDVNGRHVNIKSLLIVEKINGKWFVRSVRVR”, “DEEKEETEKLAKDILHNIHTGNEEEFLKLADPNTRIVQGDFRTHGRESMHFWMREVRKLFKNVRIHWRLKDVRSFEGHAITHIEVEVSFDGRTDLIRMEIHVIVVNGKIEELIINTR” is higher in protease stability score: 0.534 for the first, 0.695 for the second.

Compared with “DEEEEHSKKMTDWWLHAVLTGDEEKLRQMIDPDVKLHINGKDHVGREEAVKSLRELLHRLGVNHIHVERMDVVGDKVILNFHLRVGDKEHETRVILHIYNGRIKEIRIHIH”, “HKEHRDAHELLERWLRSSVTGDEDTLSELLDPNVKIEIGNKHVHGREEVSRHFSERAHRIDHVRLHVDDLYIQGEKVHVDLTLEINVGDWRQTIKVEYVVLKVNGRWRIHTIHER” is lower in protease stability score: 2.16 for the first, 0.674 for the second.

First: DETTKLVEEVTRLLERAWETGDEETIYQLLDPNVKWNINGVDFHGMEHLAREIIHELRRHGFRVRFRLHHIDIQGDKARVESIEHIHIGNKHIHRRTYLFLSKVNGVWSIQEQRVE
Second: DEDERFAEIAIRLMIEIIKTGDEREEDKLIDPHARLIVGDWLIHGRDELVRYLTHLRIEHLEIKTWEVVNGRVKLTTRIHLRINGRHHETDQVNIIEKVNGRWYMKLIEFK
The protease stability score of the first is higher: 1.44 for the first, 1.19 for the second.

Going from “SEEEHLLREILERIIHIYSTGDEQILKHLMDPHVKITVEVNGRRIIFHGMEQYIQWYRDLGFDHSKVKLRDHRIIGDKAHAVTELEIHFDGKRREEETREVIVVIDGRLTTWHTSVN” to “SEDEELVRKATEDFINMHRTGDEDELRKMMDPDDKLRIGDKEVIGREAVITWLMEWLKKMGVNHIRFHRVHLFDGKIHVDGELHIGDKEFEIHIFALKINGRWIRESEEIK”, the protease stability score rises from 0.898 to 1.39.

Compared with “DEEDEQREHLLELLFHFLRTGDEELLFRLADPRVRHVWNGRELHGRELVIEILDDELEKMGANHIHIDLERVRMVDGRLDVDGHIVIKIGDKSHFFDMHFHIRKIDGRWVIKDLTIR”, “DEIDEAIIEFFRLMLEWNETGDEEYIDTLIDPHTQLKIIYGDKDREFIGREEYFKIVLEWRIKEVRIHSIHTQGNKLNIDGEINGNIDGRDTKTRINIHFIVVNGRLKTITLRFE” is higher in protease stability score: 0.853 for the first, 2.43 for the second.

First: DEDENLMRQFWETWEEALKTGDEHILHNLMDPNYRFIIGDKEHHGREAAEEFIRRVDHVTDIKFHRYRRIGDKIQIDGHLDGEINGKRNRYRSDIFVLKIDGRWFIHSVQIK
Second: DEDTEAAREMLEIIVKSLFTGDEKSLLRLADPNWKLHQGNFSWHGRESVRRFHKEIRVHFDDIRVHRFSTINGRVHIDGHIHITVHIDGQTIHIDSDTTWHMVIINGKMHHAIIIHV
The protease stability score of the first is higher: 2.31 for the first, 0.881 for the second.

Going from “SEEKKAIDEVLRLIFEAELTGNEDELEHLIDPHVKFHIDGVDVHGWEYLSYWIRQIRIHNLHPRSVEIHVYNGRVEVNIRGHYEGTINGRRTTFDMRVHIRIEKIDGVWIVREMSRHNH” to “SEDKEADEIIIEKIMRALTTGDENLWKRLLDPNVRFEYDGVEMHGWEEIKKLLERIDHFHVDDHKIKDVRIIDGRIDNYGRLRGTIDINGREIHTILHVRILVLKIDGKWTVESEHSK”, the protease stability score falls from 1.7 to 1.43.

Going from “NREDRELEDFIWEILEAWRTGDEDEHHRLLDPHTRHHFNGRVSHGREMVEYIFKQFDHIHRFEYRDFSVQGNKAHVFAQVDVRIGDKIITFDVTIEVEKVNGRWVLRELSIH” to “TEEHRATHDYVELLIRAARTGDEDIWKTMFDPDDKLVINGRTHHGREEAVRLLREIRIQIDHVDLREVRVYDGVVEIHTHTELRIIQGDKHLEIRTDQEVHILKIDGRWSNSIVIIH”, the protease stability score falls from 1.31 to 1.06.

First: SEDEEWAKRMADNILEFLNTGDFREFSKELDPNTILRIDGREIHGMELVETHLEHARMRVDDWEIRSVRSVNGKLDVDMRLDGKLRFDGKEHYRKTESILIILKVDGKWRIHNIHVR
Second: DEKEDHMRKIALILIKDWLTGNEESLRHMADPNVRVHIHQGNKNIHKHGMEALRELWEEIRIRHFNLERQNVINGVVFIDGRVDGEVDGRRVDTDVEVIIVIVNGRMKLLSRHIE
The protease stability score of the first is lower: 1.07 for the first, 1.34 for the second.
